Reference: patent US20240116985A1, “STAPLED PEPTIDES AND METHODS THEREOF” (priority 2020, published 2024)
Starred links: 1 amine or outer side, 2 acyl side, 3 side chain; linkers in the order of their positions; H or OH if unused. Positions of bridges follow the written chain, without caps; N, C: chain ends. Non-standard residues stand in square brackets, D forms with d. Primed or numbered codes have the meaning given here. B5(4) = 2,2-bis(4-pentenyl)glycine = 2-amino-2-(pent-4-en-1-yl)hept-6-enoic acid (stitching residue), C=CCCCC(CCCC=C)(N[*:1])C(=O)[*:2]; B5(5) = 2,2-bis(4-pentenyl)glycine, 2-amino-2-(pent-4-en-1-yl)hept-6-enoic acid (stitching residue), C=CCCCC(CCCC=C)(N[*:1])C(=O)[*:2]; B5(8) = 2,2-bis(4-pentenyl)glycine (2-amino-2-(pent-4-en-1-yl)hept-6-enoic acid, stitching residue), C=CCCCC(CCCC=C)(N[*:1])C(=O)[*:2]; TfeGA = (S)-2-amino-3-((carboxymethyl)(2,2,2-trifluoroethyl)amino)propanoic acid, O=C([C@H](CN(CC(=O)[*:3])CC(F)(F)F)N[*:1])[*:2]; PyrS2 = (S)-3-amino-1-((pent-4-en-1-yloxy)carbonyl)pyrrolidine-3-carboxylic acid, C=CCCCOC(=O)N1CC[C@@](N[*:1])(C(=O)[*:2])C1; B5(13) = 2-amino-2-(pent-4-en-1-yl)hept-6-enoic acid (two alkene chains), C=CCCCC(CCCC=C)(N[*:1])C(=O)[*:2]; B5(3) = 2,2-bis(4-pentenyl)glycine (stitching residue), C=CCCCC(CCCC=C)(N[*:1])C(=O)[*:2]; Trp(5-Cl) = N[C@@H](Cc1c[nH]c2ccc(Cl)cc12)C(=O)O; Phe(3-F) = N[C@@H](Cc1cccc(F)c1)C(=O)O; 2Nal = N[C@@H](Cc1ccc2ccccc2c1)C(=O)O; Phe(2-Me) = Cc1ccccc1C[C@H](N)C(=O)O; Bta = N[C@@H](Cc1csc2ccccc12)C(=O)O; αAllylPro = C=CC[C@@]1(C(=O)O)CCCN1; tBuAla = CC(C)(C)C[C@H](N)C(=O)O; 2Thi = N[C@@H](Cc1cccs1)C(=O)O; 3Thi = N[C@@H](Cc1ccsc1)C(=O)O; S8 = C=CCCCCCC[C@](C)(N)C(=O)O; hLeu = CC(C)CC[C@H](N)C(=O)O

Target: full-length beta-Catenin (Uniprot ID P35222) (Homo sapiens (Human)) (UniProt P35222)
Assay: fluorescence polarization competition; full-length beta-catenin; competitor displaced: 5FAM-TCF4 10-53
Target sequence in this assay (P35222 2-781 limits assumed): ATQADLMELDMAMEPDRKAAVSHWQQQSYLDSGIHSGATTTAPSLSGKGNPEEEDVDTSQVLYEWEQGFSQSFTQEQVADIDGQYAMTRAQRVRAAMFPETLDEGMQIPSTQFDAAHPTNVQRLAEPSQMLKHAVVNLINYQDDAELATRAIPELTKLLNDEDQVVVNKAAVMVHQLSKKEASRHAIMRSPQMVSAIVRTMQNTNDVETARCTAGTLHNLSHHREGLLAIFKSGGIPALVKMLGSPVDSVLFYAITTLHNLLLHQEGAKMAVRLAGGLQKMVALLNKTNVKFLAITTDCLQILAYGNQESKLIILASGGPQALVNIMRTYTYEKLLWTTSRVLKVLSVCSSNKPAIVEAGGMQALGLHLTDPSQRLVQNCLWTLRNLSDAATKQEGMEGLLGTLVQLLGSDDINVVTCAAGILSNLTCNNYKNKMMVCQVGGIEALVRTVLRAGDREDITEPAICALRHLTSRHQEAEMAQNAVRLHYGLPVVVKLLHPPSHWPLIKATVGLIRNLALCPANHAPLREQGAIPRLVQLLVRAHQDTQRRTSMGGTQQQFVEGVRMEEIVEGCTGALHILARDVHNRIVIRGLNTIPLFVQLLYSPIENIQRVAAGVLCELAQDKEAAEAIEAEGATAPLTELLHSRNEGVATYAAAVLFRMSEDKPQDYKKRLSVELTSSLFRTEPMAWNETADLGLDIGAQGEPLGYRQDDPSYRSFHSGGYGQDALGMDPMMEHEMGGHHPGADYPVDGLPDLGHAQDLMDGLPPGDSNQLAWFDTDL

IC50 [µM]	Binder
0.043	Ac-[αAllylPro]DI[B5(8)]D[TfeGA]AAFN[S8]F[Bta]Q-NH2 (staple 1-4, 4-11) [I-699]

Target: full-length beta-Catenin (Uniprot ID P35222) (Homo sapiens (Human)) (UniProt P35222)
Assay: fluorescence polarization competition; peptide displaces 5FAM-TCF4(10-53) from full-length beta-catenin
Target sequence in this assay (P35222 2-781 limits assumed): as above

IC50 [µM]	Binder
0.02	Ac-[αAllylPro]D[tBuAla][B5(4)]DDAAFN[PyrS2][3Thi]WH-NH2 (staple 1-4, 4-11) [I-792]
0.014	Ac-[αAllylPro]D[tBuAla][B5(4)]DDAAFN[PyrS2][Bta][Bta]H-NH2 (staple 1-4, 4-11) [I-793]
0.005	Ac-[αAllylPro]D[hLeu][B5(5)]DDAAFN[PyrS2][3Thi][Bta]H-NH2 (staple 1-4, 4-11) [I-788]
0.31	Ac-[αAllylPro]D[tBuAla][B5(4)]DDAAFN[PyrS2][3Thi][Trp(5-Cl)]H-NH2 (staple 1-4, 4-11) [I-791]
0.024	Ac-[αAllylPro]D[tBuAla][B5(5)]DDAAFN[PyrS2][3Thi][2Nal]H-NH2 (staple 1-4, 4-11) [I-790]
0.006	Ac-[αAllylPro]D[tBuAla][B5(13)]DDAAFN[PyrS2][Phe(2-Me)][Bta]H-NH2 (staple 1-4, 4-11) [I-782]

Target: full-length beta-Catenin (Uniprot ID P35222) (Homo sapiens (Human)) (UniProt P35222)
Assay: fluorescence polarization competition; full-length beta-catenin + 5FAM-TCF4(10-53) probe; peptide titrated
Target sequence in this assay (P35222 2-781 limits assumed): as above

EC50 [µM]	Binder
0.043	Ac-[αAllylPro]DI[B5(8)]D[TfeGA]AAFN[S8]F[Bta]Q-NH2 (staple 1-4, 4-11) [I-699]

Target: full-length beta-Catenin (Uniprot ID P35222) (Homo sapiens (Human)) (UniProt P35222)
Assay: fluorescence polarization competition; 10 nM full-length beta-catenin + 10 nM 5FAM-TCF4(10-53) probe, peptide titrated
Target sequence in this assay (P35222 2-781 limits assumed): as above

EC50 [µM]	Binder
0.109	Ac-[αAllylPro]DA[B5(3)]DEAAFQ[S8][3Thi][Bta]Q-NH2 (staple 1-4, 4-11; also: staple isomer composition, earlier eluting HPLC peak) [I-426]
0.0385	Ac-[αAllylPro]DA[B5(4)]DEAAFQ[S8][3Thi][Bta]Q-NH2 (staple 1-4, 4-11; also: staple isomer composition, later-eluting HPLC peak) [I-427]
1.32	Ac-[αAllylPro]DA[B5(4)]DEAA[3Thi]Q[S8][Phe(3-F)][Bta]-NH2 (staple 1-4, 4-11) [I-431]

Further lines, the binder ahead of its results:

Binder	EC50 [µM]
Ac-[αAllylPro]DA[B5(4)]DEAA[3Thi]Q[S8][Phe(3-F)][Bta]H-NH2 (staple 1-4, 4-11) [I-430]	0.154
Ac-[αAllylPro]DA[B5(4)]DEAAFQ[S8][2Thi][Bta]Q-NH2 (staple 1-4, 4-11) [I-428]	0.06
Ac-[αAllylPro]DA[B5(4)]DEAA[3Thi]Q[S8][Phe(3-F)][Bta]Q-NH2 (staple 1-4, 4-11) [I-429]	0.146
Ac-[αAllylPro]DA[B5(4)]DEAAFN[S8]F[Bta]-NH2 (staple 1-4, 4-11) [I-432]	0.145

Target: full-length beta-Catenin (Uniprot ID P35222) (Homo sapiens (Human)) (UniProt P35222)
Assay: fluorescence polarization competition: peptide titrated against 10 nM full-length beta-catenin + 10 nM 5FAM-TCF4(10-53) probe
Target sequence in this assay (P35222 2-781 limits assumed): as above

EC50 [µM]	Binder
0.02	Ac-[αAllylPro]D[tBuAla][B5(4)]DDAAFN[PyrS2][3Thi]WH-NH2 (staple 1-4, 4-11) [I-792]
0.014	Ac-[αAllylPro]D[tBuAla][B5(4)]DDAAFN[PyrS2][Bta][Bta]H-NH2 (staple 1-4, 4-11) [I-793]
0.005	Ac-[αAllylPro]D[hLeu][B5(5)]DDAAFN[PyrS2][3Thi][Bta]H-NH2 (staple 1-4, 4-11) [I-788]
0.31	Ac-[αAllylPro]D[tBuAla][B5(4)]DDAAFN[PyrS2][3Thi][Trp(5-Cl)]H-NH2 (staple 1-4, 4-11) [I-791]
0.024	Ac-[αAllylPro]D[tBuAla][B5(5)]DDAAFN[PyrS2][3Thi][2Nal]H-NH2 (staple 1-4, 4-11) [I-790]
0.006	Ac-[αAllylPro]D[tBuAla][B5(13)]DDAAFN[PyrS2][Phe(2-Me)][Bta]H-NH2 (staple 1-4, 4-11) [I-782]

Target: full-length beta-Catenin (Uniprot ID P35222) (Homo sapiens (Human)) (UniProt P35222)
Assay: fluorescence polarization competition; peptide titrated against 10 nM full-length beta-catenin + 10 nM 5FAM-TCF4(10-53) probe
Target sequence in this assay (P35222 whole entry): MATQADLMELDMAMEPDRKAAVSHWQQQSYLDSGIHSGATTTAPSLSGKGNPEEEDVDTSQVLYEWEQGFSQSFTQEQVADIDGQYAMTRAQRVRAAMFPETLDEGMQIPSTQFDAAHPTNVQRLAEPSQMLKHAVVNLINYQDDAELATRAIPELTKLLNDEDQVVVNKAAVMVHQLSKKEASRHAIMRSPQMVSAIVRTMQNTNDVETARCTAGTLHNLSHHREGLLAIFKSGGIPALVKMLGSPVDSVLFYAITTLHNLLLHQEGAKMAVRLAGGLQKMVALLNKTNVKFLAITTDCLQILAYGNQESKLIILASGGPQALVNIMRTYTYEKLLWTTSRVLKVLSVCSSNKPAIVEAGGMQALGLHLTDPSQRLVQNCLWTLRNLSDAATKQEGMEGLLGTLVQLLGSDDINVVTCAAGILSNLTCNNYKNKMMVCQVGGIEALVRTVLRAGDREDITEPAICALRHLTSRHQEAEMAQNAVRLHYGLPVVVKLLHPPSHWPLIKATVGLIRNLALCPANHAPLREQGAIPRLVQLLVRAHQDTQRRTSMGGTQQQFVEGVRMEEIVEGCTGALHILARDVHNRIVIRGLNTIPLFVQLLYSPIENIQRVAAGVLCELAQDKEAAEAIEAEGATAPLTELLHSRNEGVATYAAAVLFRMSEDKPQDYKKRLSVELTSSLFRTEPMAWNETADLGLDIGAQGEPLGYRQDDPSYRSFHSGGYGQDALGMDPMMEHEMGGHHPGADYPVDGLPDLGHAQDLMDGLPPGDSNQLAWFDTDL

IC50 [µM]	Binder
0.109	Ac-[αAllylPro]DA[B5(3)]DEAAFQ[S8][3Thi][Bta]Q-NH2 (staple 1-4, 4-11; also: staple isomer composition, earlier eluting HPLC peak) [I-426]
0.0385	Ac-[αAllylPro]DA[B5(4)]DEAAFQ[S8][3Thi][Bta]Q-NH2 (staple 1-4, 4-11; also: staple isomer composition, later-eluting HPLC peak) [I-427]
1.32	Ac-[αAllylPro]DA[B5(4)]DEAA[3Thi]Q[S8][Phe(3-F)][Bta]-NH2 (staple 1-4, 4-11) [I-431]

Second part, the binder before the results:

Binder	IC50 [µM]
Ac-[αAllylPro]DA[B5(4)]DEAA[3Thi]Q[S8][Phe(3-F)][Bta]H-NH2 (staple 1-4, 4-11) [I-430]	0.154
Ac-[αAllylPro]DA[B5(4)]DEAAFQ[S8][2Thi][Bta]Q-NH2 (staple 1-4, 4-11) [I-428]	0.06
Ac-[αAllylPro]DA[B5(4)]DEAA[3Thi]Q[S8][Phe(3-F)][Bta]Q-NH2 (staple 1-4, 4-11) [I-429]	0.146
Ac-[αAllylPro]DA[B5(4)]DEAAFN[S8]F[Bta]-NH2 (staple 1-4, 4-11) [I-432]	0.145
